Experimental data as given in article PMC4384728 (The Journal of Cell Biology, 2015).

Columns and labels:
HA-VEGFR2-TMD = molecular target: T1, HA-VEGFR2-TMD; experiment: pull-down
T1 chain: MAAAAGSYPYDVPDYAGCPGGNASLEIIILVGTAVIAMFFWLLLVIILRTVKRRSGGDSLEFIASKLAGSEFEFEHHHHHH

HA-VEGFR3-TMD = molecular target: T2, HA-VEGFR3-TMD; experiment: pull-down
T2 chain: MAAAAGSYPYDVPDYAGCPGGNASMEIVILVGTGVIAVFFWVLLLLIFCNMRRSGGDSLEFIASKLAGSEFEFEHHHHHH

binding result (HA-VEGFR2-TMD): binds | binding result (HA-VEGFR3-TMD): binds
B1: Flag-VE-TMD (domain or fragment)
chain: MAAAAGSDYKDDDDKGCPGGNASVSIQAVVAILLCILTITVITLLIFLRRRSGGLNDIFEAQKIEWHESSEFEFEHHHHHH
